Measurements reported in publication PMC10695638.

Target: activated complement component C3 (C3b) (UniProt P01024)
Assay: SPR

response (RU), median, C3b-chip 2: 17 RU
Substance: Factor B (natural protein)
